What follows are molecules tested on O=[N+]([O-])c1ccc(O[C@@H]2O[C@H](CO)[C@@H](O)[C@H](O)[C@H]2O)cc1 (assay: purified protein). Conditions: pH 10.0, glycine-NaOH, 30 °C.

Molecule | Km [µM] | Vmax [µmol/min/mg] | kcat [s⁻¹] | kcat/Km [M⁻¹ s⁻¹]
Bgl1D (uncultured microorganism; L115N/S28T) (protein) MSLFFTFNPLEIVPTRVIGVPNHYQNYTWCNFQNGDYPFIDGIDINLIYQVKVGIPIVVRLETVATIFNILIPHLSESERDYIKRVYDYLRLDGRTSQSSYFFGPVDSQKIGLINRKYFFEWSSQMTYECLSGKVRGIAAPDKLVSEMNEIYNELMKVFNGDVSNIVNIGVN | 1010 ± 450 | 26.3 | 16.5 | 16400
Bgl1D (uncultured microorganism) (protein) MSLFFTFNPLEIVPTRVIGVPNHYQNYSWCNFQNGDYPFIDGIDINLIYQVKVGIPIVVRLETVATIFNILIPHLSESERDYIKRVYDYLRLDGRTSQSSYFFGPVDSQKIGLILRKYFFEWSSQMTYECLSGKVRGIAAPDKLVSEMNEIYNELMKVFNGDVSNIVNIGVN | 540 ± 30 | 20.1 | 13.4 | 24800
Bgl1D (uncultured microorganism; E154G/I57K/S28P) (protein) MSLFFTFNPLEIVPTRVIGVPNHYQNYPWCNFQNGDYPFIDGIDINLIYQVKVGIPKVVRLETVATIFNILIPHLSESERDYIKRVYDYLRLDGRTSQSSYFFGPVDSQKIGLILRKYFFEWSSQMTYECLSGKVRGIAAPDKLVSEMNEIYNGLMKVFNGDVSNIVNIGVN | 1170 ± 50 | 52.9 | 48.1 | 41100
Bgl1D (uncultured microorganism; F68L/I70M) (protein) MSLFFTFNPLEIVPTRVIGVPNHYQNYSWCNFQNGDYPFIDGIDINLIYQVKVGIPIVVRLETVATILNMLIPHLSESERDYIKRVYDYLRLDGRTSQSSYFFGPVDSQKIGLILRKYFFEWSSQMTYECLSGKVRGIAAPDKLVSEMNEIYNELMKVFNGDVSNIVNIGVN | 530 ± 80 | 25.8 | 29.4 | 55400
Bgl1D (uncultured microorganism; D44E/F68L/I70M/R91G/Y37H) (protein) MSLFFTFNPLEIVPTRVIGVPNHYQNYSWCNFQNGDHPFIDGIEINLIYQVKVGIPIVVRLETVATILNMLIPHLSESERDYIKRVYDYLGLDGRTSQSSYFFGPVDSQKIGLILRKYFFEWSSQMTYECLSGKVRGIAAPDKLVSEMNEIYNELMKVFNGDVSNIVNIGVN | 470 ± 20 | 154 | 139 | 296000

Tested on: O=[N+]([O-])c1ccc(O[C@@H]2O[C@H](CO)[C@@H](O)[C@H](O)[C@H]2O)cc1
Test: purified protein
Conditions: pH 10.0, glycine-NaOH, 30 °C
Remark: another data set of the same source

Molecule | Km [µM] | Vmax [µmol/min/mg] | kcat [s⁻¹] | kcat/Km [M⁻¹ s⁻¹]
Bgl1D (uncultured microorganism; E154G/I57K/S28P/W122G/Y82S) | 1670 ± 120 | 42.5 | 55.8 | 33400
Bgl1D (uncultured microorganism; K117N/L115Q/M148K/Q25L/S28T) | 1740 ± 140 | 37.5 | 31.2 | 17900
Bgl1D (uncultured microorganism; K117N/M148K/Q25L) | 1250 ± 120 | 21.7 | 23.8 | 14400

Same assay, conditions: pH 10.0, glycine-NaOH, results text says 30 °C, methods say optimal temperatures of 30 and 50 °C

Molecule | Km [µM] | Vmax [µmol/min/mg] | kcat [s⁻¹] | kcat/Km [M⁻¹ s⁻¹]
Bgl1D (uncultured microorganism; D44E/L115N/R91G/S28T/Y37H) | 430 ± 40 | 314 | 242 | 562000

Source: article PMC6940790
